Reference: patent US20130005646A1 (Novo Nordisk, published 2013)
Starred links: 1 amine or outer side, 2 acyl side, 3 side chain; linkers in the order of their positions; H or OH if unused. Positions of bridges follow the written chain, without caps; N, C: chain ends. *: point of attachment. C20 diacid = O=C(O)CCCCCCCCCCCCCCCCCCC(=O)*; γGlu = O=C(O)[C@H](CCC(=O)[*:2])N[*:1]

Experiments:
Assay in all cases: cell-based or functional assay
[1] = biological target: T1, human amylin 3(a) receptor (human calcitonin receptor + RAMP-3) (human) (UniProt P30988)
T1 sequence (looked up) 1: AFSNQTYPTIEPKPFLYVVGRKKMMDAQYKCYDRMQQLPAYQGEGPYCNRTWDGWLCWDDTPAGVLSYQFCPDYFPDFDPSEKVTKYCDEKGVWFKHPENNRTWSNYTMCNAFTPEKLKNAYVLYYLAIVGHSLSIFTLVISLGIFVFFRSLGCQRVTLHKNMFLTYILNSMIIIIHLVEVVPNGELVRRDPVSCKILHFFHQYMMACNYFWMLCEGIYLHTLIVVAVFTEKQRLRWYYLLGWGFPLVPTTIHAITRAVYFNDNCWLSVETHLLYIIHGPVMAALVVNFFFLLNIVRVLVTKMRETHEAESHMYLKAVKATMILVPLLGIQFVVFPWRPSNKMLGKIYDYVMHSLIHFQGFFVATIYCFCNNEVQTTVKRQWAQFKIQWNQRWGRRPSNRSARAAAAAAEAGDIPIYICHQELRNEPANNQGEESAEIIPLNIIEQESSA
T1 sequence (looked up) 2: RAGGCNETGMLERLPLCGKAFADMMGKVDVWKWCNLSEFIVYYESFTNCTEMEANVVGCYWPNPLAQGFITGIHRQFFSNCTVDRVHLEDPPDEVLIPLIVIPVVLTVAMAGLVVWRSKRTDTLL

[2] = biological target: T2, human calcitonin (a) receptor (human) (UniProt P30988)
T2 sequence (looked up): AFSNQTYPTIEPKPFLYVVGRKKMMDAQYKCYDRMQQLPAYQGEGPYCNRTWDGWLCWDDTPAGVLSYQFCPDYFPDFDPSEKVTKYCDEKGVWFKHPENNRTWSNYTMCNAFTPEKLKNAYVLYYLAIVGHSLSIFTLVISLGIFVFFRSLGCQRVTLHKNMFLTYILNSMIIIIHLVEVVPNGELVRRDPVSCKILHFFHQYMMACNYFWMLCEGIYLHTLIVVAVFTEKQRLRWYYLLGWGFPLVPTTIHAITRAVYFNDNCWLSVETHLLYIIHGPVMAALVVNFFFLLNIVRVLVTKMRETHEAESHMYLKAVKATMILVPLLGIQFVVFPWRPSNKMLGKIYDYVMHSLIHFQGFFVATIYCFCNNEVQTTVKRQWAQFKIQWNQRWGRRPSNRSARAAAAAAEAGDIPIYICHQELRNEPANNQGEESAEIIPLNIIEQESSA

[3] = biological target: T3, human amylin 3(a) receptor (human calcitonin receptor + RAMP-3) (human, UniProt P30988 25-474; O60896 24-148)
T3 sequence (looked up) 1: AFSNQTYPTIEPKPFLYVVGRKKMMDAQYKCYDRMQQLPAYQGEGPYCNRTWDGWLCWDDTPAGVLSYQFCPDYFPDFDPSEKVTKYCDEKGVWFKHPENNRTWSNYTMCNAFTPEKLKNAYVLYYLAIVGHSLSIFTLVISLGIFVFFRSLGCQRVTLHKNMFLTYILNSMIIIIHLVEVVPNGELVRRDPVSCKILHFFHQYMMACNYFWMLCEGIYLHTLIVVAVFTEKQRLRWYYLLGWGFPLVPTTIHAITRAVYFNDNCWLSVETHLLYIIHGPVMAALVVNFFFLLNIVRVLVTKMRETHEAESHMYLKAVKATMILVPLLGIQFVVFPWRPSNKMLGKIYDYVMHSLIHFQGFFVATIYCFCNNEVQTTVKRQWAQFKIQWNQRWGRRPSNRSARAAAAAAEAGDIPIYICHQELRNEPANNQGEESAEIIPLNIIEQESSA
T3 sequence (looked up) 2: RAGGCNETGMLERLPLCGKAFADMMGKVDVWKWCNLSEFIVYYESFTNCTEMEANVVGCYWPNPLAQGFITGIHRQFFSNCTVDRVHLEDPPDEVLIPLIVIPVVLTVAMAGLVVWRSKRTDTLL

[4] = biological target: T4, human calcitonin (a) receptor (human, UniProt P30988 25-474)
T4 sequence (looked up): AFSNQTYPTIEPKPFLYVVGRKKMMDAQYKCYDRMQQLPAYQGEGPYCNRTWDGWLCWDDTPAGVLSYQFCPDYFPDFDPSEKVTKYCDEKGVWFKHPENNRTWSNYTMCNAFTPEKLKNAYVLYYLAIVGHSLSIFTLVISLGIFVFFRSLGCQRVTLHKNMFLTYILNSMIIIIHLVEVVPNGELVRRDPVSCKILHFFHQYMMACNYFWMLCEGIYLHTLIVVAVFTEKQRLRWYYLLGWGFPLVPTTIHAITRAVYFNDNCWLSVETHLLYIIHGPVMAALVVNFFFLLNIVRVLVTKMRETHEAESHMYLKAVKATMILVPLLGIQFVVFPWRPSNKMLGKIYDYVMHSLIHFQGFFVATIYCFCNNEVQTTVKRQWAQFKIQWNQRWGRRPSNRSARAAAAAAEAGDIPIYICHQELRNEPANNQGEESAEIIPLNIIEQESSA

[5] = biological target: T5, rat amylin 3(a) receptor (rat calcitonin(a) receptor + rat RAMP3) (rat, UniProt P32214 25-516; Q9JJ73 23-147)
T5 sequence (looked up) 1: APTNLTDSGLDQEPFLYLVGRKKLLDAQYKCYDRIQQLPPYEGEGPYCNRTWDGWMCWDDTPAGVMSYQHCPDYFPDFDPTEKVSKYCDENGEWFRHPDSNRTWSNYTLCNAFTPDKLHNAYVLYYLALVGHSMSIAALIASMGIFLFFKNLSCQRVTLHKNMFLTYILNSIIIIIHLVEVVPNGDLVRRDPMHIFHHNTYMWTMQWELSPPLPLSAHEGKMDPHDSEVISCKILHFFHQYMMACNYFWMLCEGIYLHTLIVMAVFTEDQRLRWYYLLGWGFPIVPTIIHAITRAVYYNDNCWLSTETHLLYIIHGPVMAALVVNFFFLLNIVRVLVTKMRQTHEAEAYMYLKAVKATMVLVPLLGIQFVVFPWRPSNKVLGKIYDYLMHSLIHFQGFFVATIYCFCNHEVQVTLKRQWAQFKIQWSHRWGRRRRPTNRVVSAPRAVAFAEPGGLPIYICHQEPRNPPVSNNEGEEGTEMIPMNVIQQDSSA
T5 sequence (looked up) 2: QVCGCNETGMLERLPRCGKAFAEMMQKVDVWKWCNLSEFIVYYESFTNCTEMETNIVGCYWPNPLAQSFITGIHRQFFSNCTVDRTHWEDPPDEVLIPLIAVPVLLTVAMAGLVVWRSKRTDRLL

[6] = biological target: T6, rat calcitonin (a) receptor (rat, UniProt P32214 25-516)
T6 sequence (looked up): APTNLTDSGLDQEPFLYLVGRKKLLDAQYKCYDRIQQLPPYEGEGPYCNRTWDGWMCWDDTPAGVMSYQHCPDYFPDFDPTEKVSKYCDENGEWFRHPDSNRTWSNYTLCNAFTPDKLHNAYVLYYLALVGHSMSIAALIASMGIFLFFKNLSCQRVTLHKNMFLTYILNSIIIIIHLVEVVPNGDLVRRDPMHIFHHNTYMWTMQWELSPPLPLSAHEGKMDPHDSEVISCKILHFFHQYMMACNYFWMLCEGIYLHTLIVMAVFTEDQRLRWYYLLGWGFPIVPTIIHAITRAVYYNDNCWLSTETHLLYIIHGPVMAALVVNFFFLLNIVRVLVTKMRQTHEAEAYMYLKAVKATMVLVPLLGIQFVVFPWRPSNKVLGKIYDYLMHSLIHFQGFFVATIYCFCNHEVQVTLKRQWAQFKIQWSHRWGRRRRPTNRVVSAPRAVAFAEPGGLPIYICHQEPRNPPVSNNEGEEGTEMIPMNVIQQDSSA

| Binder | Amylin receptor human EC50 [1] [nM] | CTa receptor human EC50 [2] [nM] | Amylin receptor human EC50 [3] [nM] | CTa receptor human EC50 [4] [nM] | Amylin receptor rat EC50 [5] [nM] | CTa receptor rat EC50 [6] [nM] |
| --- | --- | --- | --- | --- | --- | --- |
| {C20 diacid}-EERECNTATCATQRLANFLVHSSNNFGPILPPTNVGSNTP-NH2 (disulfide 5-10; SMILES CC[C@H](C)[C@H](NC(=O)[C@@H]1CCCN1C(=O)CNC(=O)[C@H](Cc1ccccc1)NC(=O)[C@H](CC(N)=O)NC(=O)[C@H](CC(N)=O)NC(=O)[C@H](CO)NC(=O)[C@H](CO)NC(=O)[C@H](Cc1c[nH]cn1)NC(=O)[C@@H](NC(=O)[C@H](CC(C)C)NC(=O)[C@H](Cc1ccccc1)NC(=O)[C@H](CC(N)=O)NC(=O)[C@H](C)NC(=O)[C@H](CC(C)C)NC(=O)[C@H](CCCNC(=N)N)NC(=O)[C@H](CCC(N)=O)NC(=O)[C@@H](NC(=O)[C@H](C)NC(=O)[C@@H]1CSSC[C@H](NC(=O)[C@H](CCC(=O)O)NC(=O)[C@H](CCCNC(=N)N)NC(=O)[C@H](CCC(=O)O)NC(=O)[C@H](CCC(=O)O)NC(=O)CCCCCCCCCCCCCCCCCCC(=O)O)C(=O)N[C@@H](CC(N)=O)C(=O)N[C@@H]([C@@H](C)O)C(=O)N[C@@H](C)C(=O)N[C@@H]([C@@H](C)O)C(=O)N1)[C@@H](C)O)C(C)C)C(=O)N[C@@H](CC(C)C)C(=O)N1CCC[C@H]1C(=O)N1CCC[C@H]1C(=O)N[C@H](C(=O)N[C@@H](CC(N)=O)C(=O)N[C@H](C(=O)NCC(=O)N[C@@H](CO)C(=O)N[C@@H](CC(N)=O)C(=O)N[C@H](C(=O)N1CCC[C@H]1C(N)=O)[C@@H](C)O)C(C)C)[C@@H](C)O) [N-alpha-(19-carboxynonadecanoyl)-Glu-Glu-Arg-[Glu1,Pro37]-pramlintide] | 0.045 | 0.0615 | – | – | – | – |
| {C20 diacid-γGlu}-HHHCRTATCATQRLAEFLHHSSNNFGPILPPTNVGSNTY-NH2 (disulfide 4-9; SMILES CC[C@H](C)[C@H](NC(=O)[C@@H]1CCCN1C(=O)CNC(=O)[C@H](Cc1ccccc1)NC(=O)[C@H](CC(N)=O)NC(=O)[C@H](CC(N)=O)NC(=O)[C@H](CO)NC(=O)[C@H](CO)NC(=O)[C@H](Cc1c[nH]cn1)NC(=O)[C@H](Cc1c[nH]cn1)NC(=O)[C@H](CC(C)C)NC(=O)[C@H](Cc1ccccc1)NC(=O)[C@H](CCC(=O)O)NC(=O)[C@H](C)NC(=O)[C@H](CC(C)C)NC(=O)[C@H](CCCNC(=N)N)NC(=O)[C@H](CCC(N)=O)NC(=O)[C@@H](NC(=O)[C@H](C)NC(=O)[C@@H]1CSSC[C@H](NC(=O)[C@H](Cc2c[nH]cn2)NC(=O)[C@H](Cc2c[nH]cn2)NC(=O)[C@H](Cc2c[nH]cn2)NC(=O)CC[C@H](NC(=O)CCCCCCCCCCCCCCCCCCC(=O)O)C(=O)O)C(=O)N[C@@H](CCCNC(=N)N)C(=O)N[C@@H]([C@@H](C)O)C(=O)N[C@@H](C)C(=O)N[C@@H]([C@@H](C)O)C(=O)N1)[C@@H](C)O)C(=O)N[C@@H](CC(C)C)C(=O)N1CCC[C@H]1C(=O)N1CCC[C@H]1C(=O)N[C@H](C(=O)N[C@@H](CC(N)=O)C(=O)N[C@H](C(=O)NCC(=O)N[C@@H](CO)C(=O)N[C@@H](CC(N)=O)C(=O)N[C@H](C(=O)N[C@@H](Cc1ccc(O)cc1)C(N)=O)[C@@H](C)O)C(C)C)[C@@H](C)O) | – | – | 0.0985 | 0.157 | 0.261 | 1.29 |
